According to patent publication US20050260568A1, “Hepatitis C virus assays” (priority 2004, published 2005):

What was measured:
[1] = system: Huh-7 replicon cells; assay: Alamar Blue cytotoxicity assay; type: cell-based; conditions: lower concentrations of IFN-α (100, 10, 1 units)
Method: (§1) Subsequent to addition of the test compounds described above (FRET Assay Preparation), at various times the plate was removed and Alamar Blue solution (Trek Diagnostics, #00-100) was added per well as a measure of cellular toxicity. After reading in a Cytoflour 4000 instrument (PE Biosystems), plates were rinsed with PBS and then used for FRET assay by the addition of 30 ul of the FRET peptide assay reagent described above (FRET Assay Preparation) per well. The plate was then placed into the Cytoflour 4000 instrument which had been set to 340 excite/490 emission, automatic mode for 20 cycles and the plate read in a kinetic mode. Typically, the signal to noise using an endpoint analysis after the reads was at least three-fold.
Compound analysis was determined by quantification of the relative HCV replicon inhibition and the relative cytotoxicity values. To calculate cytotoxicity values, the average Alamar Blue fluorescence signals from the control wells in row 11 (FIG. 4) were set as 100% non-toxic. The individual signals in each of the compound test wells were then divided by the average control signal and multiplied by 100% to determine […]. To calculate the HCV replicon inhibition values, an average background value FRET signal was obtained from the two wells containing the highest amount of interferon at the end of the assay period. […]

[2] = system: HCV replicon; assay: HCV replicon FRET assay (NS3 protease activity as indirect measure of HCV RNA replication); type: cell-based, Hepatitis C virus; conditions: FIG. 7A IFN-α control titration 1000 to 1 units
Text: To perform the HCV FRET screening assay, 96-well cell culture plates were used. The FRET peptide (Anaspec, Inc.) (Taliani et al., Anal. Biochem. 240:60-67 (1996), expressly incorporated by reference in its entirety) contains a fluorescence donor, EDANS, near one end of the peptide and an acceptor, DABCYL, near the other end. The fluorescence of the peptide is quenched by intramolecular resonance energy transfer (RET) between the donor and the acceptor, but as the NS3 protease cleaves the peptide the products are released from RET quenching and the fluorescence of the donor becomes apparent. […]
as §1, with “three-fold. […]” for “three-fold.”

## Interferon alpha [IFN-α]
[1]
  cytotoxicity (Alamar Blue staining change): no apparent Alamar Blue staining change
[2]
  EC50 in control samples of random compound plate (FRET): close to or slightly lower than the lowest concentration of IFN-α used
